Molecular target: Epidermal Growth Factor Receptor (EGFR), Drosophila, endogenous (Drosophila (endogenous in ovaries)) (UniProt P04412)
Assay: co-IP; ovarian lysates of wild-type females or females expressing D-CblL or RING-SH2^Drk in follicle cells, immunoprecipitated with mouse monoclonal anti-EGFR, 4°C; blotted with rabbit anti-EGFR and anti-Drk

Sequence of UniProt P04412 (P04412 31-1426): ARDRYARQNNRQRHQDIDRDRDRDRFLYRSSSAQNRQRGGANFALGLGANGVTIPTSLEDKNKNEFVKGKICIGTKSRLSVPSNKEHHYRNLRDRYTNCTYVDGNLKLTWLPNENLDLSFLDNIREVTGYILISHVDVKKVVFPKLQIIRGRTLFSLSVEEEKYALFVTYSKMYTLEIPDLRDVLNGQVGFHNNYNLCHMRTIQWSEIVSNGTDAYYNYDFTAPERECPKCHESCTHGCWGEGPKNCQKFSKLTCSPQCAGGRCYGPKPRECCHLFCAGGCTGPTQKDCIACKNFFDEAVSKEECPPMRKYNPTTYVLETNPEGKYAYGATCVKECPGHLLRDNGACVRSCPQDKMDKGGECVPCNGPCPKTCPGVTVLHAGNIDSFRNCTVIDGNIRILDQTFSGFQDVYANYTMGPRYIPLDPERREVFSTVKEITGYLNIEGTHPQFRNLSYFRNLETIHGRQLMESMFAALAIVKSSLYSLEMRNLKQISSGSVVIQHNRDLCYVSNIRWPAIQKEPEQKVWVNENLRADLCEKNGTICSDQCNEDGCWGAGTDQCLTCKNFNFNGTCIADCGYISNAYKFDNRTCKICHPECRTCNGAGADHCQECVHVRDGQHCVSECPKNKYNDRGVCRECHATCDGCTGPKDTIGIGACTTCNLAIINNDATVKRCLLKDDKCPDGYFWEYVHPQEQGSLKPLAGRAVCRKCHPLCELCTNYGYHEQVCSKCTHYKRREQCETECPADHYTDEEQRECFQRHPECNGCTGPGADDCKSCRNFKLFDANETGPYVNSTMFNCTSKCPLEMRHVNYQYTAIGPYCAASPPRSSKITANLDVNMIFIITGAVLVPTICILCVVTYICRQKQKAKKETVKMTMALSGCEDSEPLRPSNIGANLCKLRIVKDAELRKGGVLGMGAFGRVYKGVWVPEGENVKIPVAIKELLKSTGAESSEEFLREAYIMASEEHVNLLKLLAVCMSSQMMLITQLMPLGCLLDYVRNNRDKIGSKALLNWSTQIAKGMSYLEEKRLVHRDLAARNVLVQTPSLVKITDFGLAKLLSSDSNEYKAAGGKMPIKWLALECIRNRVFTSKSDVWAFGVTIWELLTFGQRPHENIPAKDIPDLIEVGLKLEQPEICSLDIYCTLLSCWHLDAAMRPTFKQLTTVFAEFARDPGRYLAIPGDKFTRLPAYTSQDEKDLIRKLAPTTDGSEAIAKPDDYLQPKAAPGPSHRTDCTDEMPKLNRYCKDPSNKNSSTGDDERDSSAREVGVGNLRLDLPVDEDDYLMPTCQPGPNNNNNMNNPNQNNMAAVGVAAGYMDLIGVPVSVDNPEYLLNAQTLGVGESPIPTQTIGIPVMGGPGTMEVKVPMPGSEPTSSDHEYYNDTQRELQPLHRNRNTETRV

percent reduction of Drk in the EGFR complex: 40%
Substance: RING-SH2^Drk, fusion of the RING finger domain of D-CblL and the SH2 domain of Drk (from UniProt Q08012 53-160)

— paper PMC3038869
